The data set “crystal structure” deals with the molecule itself. The data set is described as follows: crystal structure.
Data set [1] concerns the target T1, mCherry-tagged full-length Spindly (^mChSpindly^FL) (human), Q96EA4.
T1 chain: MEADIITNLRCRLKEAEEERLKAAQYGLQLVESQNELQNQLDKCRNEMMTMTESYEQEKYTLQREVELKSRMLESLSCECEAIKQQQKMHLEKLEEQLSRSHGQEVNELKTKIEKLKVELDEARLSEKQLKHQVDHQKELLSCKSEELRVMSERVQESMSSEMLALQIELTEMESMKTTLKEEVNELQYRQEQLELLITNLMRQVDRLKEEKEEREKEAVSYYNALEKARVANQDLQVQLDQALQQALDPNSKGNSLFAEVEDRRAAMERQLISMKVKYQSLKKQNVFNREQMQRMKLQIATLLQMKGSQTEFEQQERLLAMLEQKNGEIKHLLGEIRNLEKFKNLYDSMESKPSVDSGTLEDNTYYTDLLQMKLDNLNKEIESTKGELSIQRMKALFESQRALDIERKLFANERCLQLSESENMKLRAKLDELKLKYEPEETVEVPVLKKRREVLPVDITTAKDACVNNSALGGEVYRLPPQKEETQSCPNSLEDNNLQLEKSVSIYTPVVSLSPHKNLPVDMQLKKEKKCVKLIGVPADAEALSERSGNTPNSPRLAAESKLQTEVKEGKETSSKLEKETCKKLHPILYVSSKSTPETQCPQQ
The data set is described as follows: mass photometry. As to conditions: remark: other sources report otherwise.

Data set [2] deals with the molecule itself.
The data set “mass photometry” deals with the molecule itself. The experiment in a line: mass photometry.
A further data set has as its target T2, Spindly^250-605 (human, UniProt Q96EA4 250-605).
T2 sequence: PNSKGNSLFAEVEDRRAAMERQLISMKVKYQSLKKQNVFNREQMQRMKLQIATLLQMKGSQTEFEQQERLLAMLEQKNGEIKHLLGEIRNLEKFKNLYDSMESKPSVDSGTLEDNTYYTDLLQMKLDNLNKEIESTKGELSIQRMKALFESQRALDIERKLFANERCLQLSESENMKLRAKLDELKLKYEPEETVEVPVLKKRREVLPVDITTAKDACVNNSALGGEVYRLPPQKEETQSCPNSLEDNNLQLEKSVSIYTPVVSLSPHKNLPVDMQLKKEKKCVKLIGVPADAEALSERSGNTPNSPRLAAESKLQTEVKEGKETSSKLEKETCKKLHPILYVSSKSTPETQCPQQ
The experiment in a line: SEC.

“And” between values parts separate entries of the source, which are not always exact repeats. Identical values can stand only once. Like-named read-outs stand apart in the source and are kept apart here.

B1: Spindly^1-100 (domain or fragment)
chain: MEADIITNLRCRLKEAEEERLKAAQYGLQLVESQNELQNQLDKCRNEMMTMTESYEQEKYTLQREVELKSRMLESLSCECEAIKQQQKMHLEKLEEQLSR
On to B1, for which the “stoichiometry N” value in “crystal structure” worked out at 2.

B2: mCherry-tagged full-length Spindly (^mChSpindly^FL), Q96EA4 1-605 (natural protein)
chain: MEADIITNLRCRLKEAEEERLKAAQYGLQLVESQNELQNQLDKCRNEMMTMTESYEQEKYTLQREVELKSRMLESLSCECEAIKQQQKMHLEKLEEQLSRSHGQEVNELKTKIEKLKVELDEARLSEKQLKHQVDHQKELLSCKSEELRVMSERVQESMSSEMLALQIELTEMESMKTTLKEEVNELQYRQEQLELLITNLMRQVDRLKEEKEEREKEAVSYYNALEKARVANQDLQVQLDQALQQALDPNSKGNSLFAEVEDRRAAMERQLISMKVKYQSLKKQNVFNREQMQRMKLQIATLLQMKGSQTEFEQQERLLAMLEQKNGEIKHLLGEIRNLEKFKNLYDSMESKPSVDSGTLEDNTYYTDLLQMKLDNLNKEIESTKGELSIQRMKALFESQRALDIERKLFANERCLQLSESENMKLRAKLDELKLKYEPEETVEVPVLKKRREVLPVDITTAKDACVNNSALGGEVYRLPPQKEETQSCPNSLEDNNLQLEKSVSIYTPVVSLSPHKNLPVDMQLKKEKKCVKLIGVPADAEALSERSGNTPNSPRLAAESKLQTEVKEGKETSSKLEKETCKKLHPILYVSSKSTPETQCPQQ
B2 came in with a stoichiometry N in data set [1] of 2.

B3: ^mChSpindly^Δ276-306 (natural protein)
chain: MEADIITNLRCRLKEAEEERLKAAQYGLQLVESQNELQNQLDKCRNEMMTMTESYEQEKYTLQREVELKSRMLESLSCECEAIKQQQKMHLEKLEEQLSRSHGQEVNELKTKIEKLKVELDEARLSEKQLKHQVDHQKELLSCKSEELRVMSERVQESMSSEMLALQIELTEMESMKTTLKEEVNELQYRQEQLELLITNLMRQVDRLKEEKEEREKEAVSYYNALEKARVANQDLQVQLDQALQQALDPNSKGNSLFAEVEDRRAAMERQLISMKGSQTEFEQQERLLAMLEQKNGEIKHLLGEIRNLEKFKNLYDSMESKPSVDSGTLEDNTYYTDLLQMKLDNLNKEIESTKGELSIQRMKALFESQRALDIERKLFANERCLQLSESENMKLRAKLDELKLKYEPEETVEVPVLKKRREVLPVDITTAKDACVNNSALGGEVYRLPPQKEETQSCPNSLEDNNLQLEKSVSIYTPVVSLSPHKNLPVDMQLKKEKKCVKLIGVPADAEALSERSGNTPNSPRLAAESKLQTEVKEGKETSSKLEKETCKKLHPILYVSSKSTPETQCPQQ
For B3, the “stoichiometry N” value in data set [2] is 2 and 4.

B4: ^mChSpindly^ΔRV (natural protein)
chain: MEADIITNLRCRLKEAEEERLKAAQYGLQLVESQNELQNQLDKCRNEMMTMTESYEQEKYTLQREVELKSRMLESLSCECEAIKQQQKMHLEKLEEQLSRSHGQEVNELKTKIEKLKVELDEARLSEKQLKHQVDHQKELLSCKSEELRVMSEQESMSSEMLALQIELTEMESMKTTLKEEVNELQYRQEQLELLITNLMRQVDRLKEEKEEREKEAVSYYNALEKARVANQDLQVQLDQALQQALDPNSKGNSLFAEVEDRRAAMERQLISMKVKYQSLKKQNVFNREQMQRMKLQIATLLQMKGSQTEFEQQERLLAMLEQKNGEIKHLLGEIRNLEKFKNLYDSMESKPSVDSGTLEDNTYYTDLLQMKLDNLNKEIESTKGELSIQRMKALFESQRALDIERKLFANERCLQLSESENMKLRAKLDELKLKYEPEETVEVPVLKKRREVLPVDITTAKDACVNNSALGGEVYRLPPQKEETQSCPNSLEDNNLQLEKSVSIYTPVVSLSPHKNLPVDMQLKKEKKCVKLIGVPADAEALSERSGNTPNSPRLAAESKLQTEVKEGKETSSKLEKETCKKLHPILYVSSKSTPETQCPQQ
Regarding B4, the “stoichiometry N” value in “mass photometry” amounted to 2.

B5: Spindly^1-250 (domain or fragment)
chain: MEADIITNLRCRLKEAEEERLKAAQYGLQLVESQNELQNQLDKCRNEMMTMTESYEQEKYTLQREVELKSRMLESLSCECEAIKQQQKMHLEKLEEQLSRSHGQEVNELKTKIEKLKVELDEARLSEKQLKHQVDHQKELLSCKSEELRVMSERVQESMSSEMLALQIELTEMESMKTTLKEEVNELQYRQEQLELLITNLMRQVDRLKEEKEEREKEAVSYYNALEKARVANQDLQVQLDQALQQALDP
On to B5, for which the binding result with Spindly^250-605 was “binds”.

B6: ^mChSpindly^76-605 (domain or fragment)
chain: LSCECEAIKQQQKMHLEKLEEQLSRSHGQEVNELKTKIEKLKVELDEARLSEKQLKHQVDHQKELLSCKSEELRVMSERVQESMSSEMLALQIELTEMESMKTTLKEEVNELQYRQEQLELLITNLMRQVDRLKEEKEEREKEAVSYYNALEKARVANQDLQVQLDQALQQALDPNSKGNSLFAEVEDRRAAMERQLISMKVKYQSLKKQNVFNREQMQRMKLQIATLLQMKGSQTEFEQQERLLAMLEQKNGEIKHLLGEIRNLEKFKNLYDSMESKPSVDSGTLEDNTYYTDLLQMKLDNLNKEIESTKGELSIQRMKALFESQRALDIERKLFANERCLQLSESENMKLRAKLDELKLKYEPEETVEVPVLKKRREVLPVDITTAKDACVNNSALGGEVYRLPPQKEETQSCPNSLEDNNLQLEKSVSIYTPVVSLSPHKNLPVDMQLKKEKKCVKLIGVPADAEALSERSGNTPNSPRLAAESKLQTEVKEGKETSSKLEKETCKKLHPILYVSSKSTPETQCPQQ
For the molecule B6, in the data set “mass photometry”, the “stoichiometry N” value is 2.

B7: Spindly^1-275 (domain or fragment)
chain: MEADIITNLRCRLKEAEEERLKAAQYGLQLVESQNELQNQLDKCRNEMMTMTESYEQEKYTLQREVELKSRMLESLSCECEAIKQQQKMHLEKLEEQLSRSHGQEVNELKTKIEKLKVELDEARLSEKQLKHQVDHQKELLSCKSEELRVMSERVQESMSSEMLALQIELTEMESMKTTLKEEVNELQYRQEQLELLITNLMRQVDRLKEEKEEREKEAVSYYNALEKARVANQDLQVQLDQALQQALDPNSKGNSLFAEVEDRRAAMERQLISM
Take B7: in data set [2], the “stoichiometry N” value was 2 and 4.

The values are drawn from paper doi:10.1101/2022.02.02.478874 (bioRxiv, 2022).
